{
  "source": "paper PMC5709234",
  "about": "(Journal of the American Society for Mass Spectrometry, 2017)",
  "proteins": {"B1": {"name": "Enolase 1 (S. cerevisiae) (enzyme, UniProt P00924 2-437, looked up)", "chain": "AVSKVYARSVYDSRGNPTVEVELTTEKGVFRSIVPSGASTGVHEALEMRDGDKSKWMGKGVLHAVKNVNDVIAPAFVKANIDVKDQKAVDDFLISLDGTANKSKLGANAILGVSLAASRAAAAEKNVPLYKHLADLSKSKTSPYVLPVPFLNVLNGGSHAGGALALQEFMIAPTGAKTFAEALRIGSEVYHNLKSLTKKRYGASAGNVGDEGGVAPNIQTAEEALDLIVDAIKAAGHDGKVKIGLDCASSEFFKDGKYDLDFKNPNSDKSKWLTGPQLADLYHSLMKRYPIVSIEDPFAEDDWEAWSHFFKTAGIQIVADDLTVTNPKRIATAIEKKAADALLLKVNQIGTLSESIKAAQDSFAAGWGVMVSHRSGETEDTFIADLVVGLRTGQIKTGAPARSERLAKLNQLLRIEEELGDNAVFAGENFHHGDKL"}, "B2": {"name": "Pyruvate kinase type III (Oryctolagus caniculus) (enzyme)", "chain": "not shown"}},
  "key": {"[1]": {"molecular_target": "the molecule itself", "test": "native MS"}, "[2]": {"molecular_target": "the molecule itself", "test": "native MS", "remark": "listed apart in the source"}},
  "note": "“And” between values parts separate entries of the source, which are not always exact repeats. Equal values may be shown once. Read-outs that look alike come from different tables or passages of the source.",
  "data": [
    {"protein": "B1", "values": [
      {"measurement": "stoichiometry N", "setting": "[1]", "result": 2}
    ]},
    {"protein": "B2", "values": [
      {"measurement": "stoichiometry N", "setting": "[2]", "result": "2 and 4"}
    ]}
  ]
}
